Data set [1] addresses T1, Interleukin-8 (IL8, CXCL8), C-terminal His-tagged (Homo sapiens, UniProt P10145 SEQ:1-72). Kind of data set: competition; competition TR-FRET; L2 mutant. Conditions: tags: C-terminal 6xHis (Sino Biological). On the procedure: (§1) Activity of each of these variants were tested using a time resolved competition TR-FRET assay in which the labeled parent Aptamer 3 was competed with increasing concentrations of unlabeled variants for binding to IL8 (FIG. 14). Briefly, 2-fold dilutions of thermally equilibrated aptamers were made in TR-FRET Buffer (50 mM MOPS, pH 7.4, 125 mM NaCl, 5 mM KCl, 50 μM CHAPS, 0.1 mg/mL BSA, 1 mM CaCl₂, and 1 mM MgCl₂). 5 μL of aptamer or control solution was added to 5 μl mix of 10 nM C-terminal His-tagged-IL8, 60 nM ALEXA FLUOR® 647-labeled Aptamer, and 5 nM anti-His-Eu (Perkin Elmer) in a black wall low volume 384 well plate (Greiner). For control, 5 μl of 1000-fold excess of unlabeled parent aptamer or 5 μl TR-FRET buffer alone was added to the mix of ALEXA FLUOR® 647-labeled aptamer, His-IL8, and anti-His-Eu. The plate was covered with a plate seal and subsequently incubated in the dark for 1 hour at room temperature. The plate was read on a Biotek CYTATION™ 5 plate reader. Samples were excited at 330 nm and fluorescent values were collected at 665 nm. Data analysis was performed by subtracting the background value and plotting as percent inhibition, normalized to baseline in the absence of competitor. The values were fit by [Inhibitor] vs. response—Variable slope (four parameters) using GraphPad Prism Version 7.0 and then normalized to aptamer control to obtain an IC₅₀ relative to parent aptamer. Data is presented as log values of relative IC₅₀.
(§2) Like L1, most of L2 was also found to be 100% conserved in the degenerate selection, except residue U20, which was ˜92% conserved (FIG. 31). To test sequence requirements of L2, variants of Aptamer 32 were made, where each position of L2 was individually replaced with the other 3 bases and tested for binding in the competition TR-FRET assay.

The target of data set [2] is T1, Interleukin-8 (IL8, CXCL8), C-terminal …. Kind of data set: competition; competition TR-FRET. Conditions: tags: C-terminal His (Sino Biological); stem-loop. How it is done: To better understand the sequence requirements and to confirm the stem structures of members of the Aptamer 3 family as determined from sequence covariation analysis from both the primary and secondary (degenerate) selections, a series of variants which included mutations and deletions to the predicted stems were synthesized and screened (Table 24). […] Briefly, 2-fold dilutions of thermally equilibrated aptamers were made in TR-FRET Buffer (50 mM MOPS, pH 7.4, 125 mM NaCl, 5 mM KCl, 50 μM CHAPS, 0.1 mg/mL BSA, 1 mM CaCl₂, and 1 mM MgCl₂). 5 μL of aptamer or control solution was added to 5 μl mix of 10 nM C-terminal His-tagged-IL8, 60 nM ALEXA FLUOR® 647-labeled Aptamer, and 5 nM anti-His-Eu (Perkin Elmer) in a black wall low volume 384 well plate (Greiner). For control, 5 μl of 1000-fold excess of unlabeled parent aptamer or 5 μl TR-FRET buffer alone was added to the mix of ALEXA FLUOR® 647-labeled aptamer, His-IL8, and anti-His-Eu. The plate was covered with a plate seal and subsequently incubated in the dark for 1 hour at room temperature. The plate was read on a Biotek CYTATION™ 5 plate reader. Samples were excited at 330 nm and fluorescent values were collected at 665 nm. Data analysis was performed by subtracting the background value and plotting as percent inhibition, normalized to baseline in the absence of competitor. The values were fit by [Inhibitor] vs. response—Variable slope (four parameters) using GraphPad Prism Version 7.0 and then normalized to aptamer control to obtain an IC₅₀ relative to parent aptamer. Data is presented as log values of relative IC₅₀.
as §2

For data set [3] the target is unchanged. Nature of the data set: competition; competition TR-FRET. Conditions: tags: C-terminal 6xHis (Sino Biological). How it is done:
To better understand the sequence requirements and to confirm the stem structures of members of the Aptamer 3 family as determined from sequence covariation analysis from both the primary and secondary (degenerate) selections, a series of variants which included mutations and deletions to the predicted stems were synthesized and screened (Table 24). Activity of each of these variants were tested using a time resolved competition TR-FRET assay in which the labeled parent Aptamer 3 was competed with increasing concentrations of unlabeled variants for binding to IL8 (FIG. 14). Briefly, 2-fold dilutions of thermally equilibrated aptamers were made in TR-FRET Buffer (50 mM MOPS, pH 7.4, 125 mM NaCl, 5 mM KCl, 50 μM CHAPS, 0.1 mg/mL BSA, 1 mM CaCl₂, and 1 mM MgCl₂). 5 μL of aptamer or control solution was added to 5 μl mix of 10 nM C-terminal His-tagged-IL8, 60 nM ALEXA FLUOR® 647-labeled Aptamer, and 5 nM anti-His-Eu (Perkin Elmer) in a black wall low volume 384 well plate (Greiner). For control, 5 μl of 1000-fold excess of unlabeled parent aptamer or 5 μl TR-FRET buffer alone was added to the mix of ALEXA FLUOR® 647-labeled aptamer, His-IL8, and anti-His-Eu. The plate was covered with a plate seal and subsequently incubated in the dark for 1 hour at room temperature. The plate was read on a Biotek CYTATION™ 5 plate reader. Samples were excited at 330 nm and fluorescent values were collected at 665 nm. Data analysis was performed by subtracting the background value and plotting as percent inhibition, normalized to baseline in the absence of competitor. The values were fit by [Inhibitor] vs. response—Variable slope (four parameters) using GraphPad Prism Version 7.0 and then normalized to aptamer control to obtain an IC₅₀ relative to parent aptamer. Data is presented as log values of relative IC₅₀.

Data set [4] has the same target. Kind of data set: TR-FRET, 500 pM IL8, protein-limited; estimated about 20 pM. Conditions: tags: C-terminal 6xHis (Sino Biological); label: Alexa Fluor 647; stem-loop. On the procedure: Under these assay conditions, the ability to measure the affinity accurately is limited by the input IL8 protein concentration, and the apparent Kd under these protein-limiting conditions was determined to be 8 nM.

Data set [5] has the same target. Nature of the data set: competition; competition TR-FRET. Conditions: tags: C-terminal 6xHis (Sino Biological). On the procedure:
as §1
Variants of Aptamers 94, 99, and 100 were synthesized with an optimized stem S1 and G18 was also replaced with a Sp3 spacer to see if further improvements could be made to these molecules (Table 30 and FIG. 20).
The source holds these as a separate data set.

Bounds are passed on as bounds.

In the case of CGGUGGGAAAUGUGAGAGGGGUUGCCG (ssRNA, 2'-F G, 2'-OMe A/C/U, 5' C6NH2, 3' idT) [Aptamer 180], the binding signal in data set [1] was over 10 fold worse than Aptamer 8.
Still for that read-out and setting: next, CGGUGGGAAAUGUGACAUGGGUUGCCG (ssRNA, 2'-F G, 2'-OMe A/C/U, 5' C6NH2, 3' idT) [Aptamer 174]: over 10 fold worse than Aptamer 8.
For CGGUGGGAAAUGUGAAAUGGGUUGCCG (ssRNA, 2'-F G; 2'-OMe A,C,U; 5' C6NH2; 3' idT) [Aptamer 175], the binding signal in data set [2] is over 10 fold worse than Aptamer 8.
With UGAUGACGAUAGAUUACGGGUAGAGUGAUCGCAUCU (ssRNA, 2'-F G, 2'-OMe A/C/U, 5' C6NH2, 3' idT) [Aptamer 186], the binding result in data set [3] is given as “binds”.
Still for that read-out and setting: as for UCUUGACGGUAGAUUACGGGUAGAGUGACCGCAUCU (ssRNA, 2'-F G, 2'-OMe A/C/U, 5' C6NH2, 3' idT) [Aptamer 187], the entry is “binds”.
In data set [3], GCGACGGCAGAUUACGGGUAGAGUGGCCGCGC (ssRNA, 2'-F G, 2'-OMe A/C/U, 5' C6NH2, 3' idT) [Aptamer 43] displayed a binding signal of over 10 fold worse than Aptamer 3.
GGCGACGGUAGAUUAUGGGCAGUGUGACCGCGCC (ssRNA, 2'-F G, 2'-OMe A/C/U, 5' C6NH2, 3' idT) [Aptamer 147]: the dissociation constant Kd in data set [4] is 0.11 nM.
Regarding GGCGACGGUAGAUUAUGGGAAGUGUGACCGCGCC (ssRNA, 2'-F G, 2'-OMe A/C/U, 5' C6NH2, 3' idT) [Aptamer 151], the binding result in data set [5] is reported as “binds”.
The same measure, in the same setting: as for GAUGACGGUAGAUUAUGGGCAGUGUGACCGCAUC (ssRNA, 2'-F G, 2'-OMe A/C/U, 5' C6NH2, 3' idT) [Aptamer 146], the entry is “binds”.

B1: Aptamer 269 (ssRNA)
RNA: GGCGACGGUAGAUUAUGGGCAGUGUGACCGCGCC
modifications: 2'-OMe A/C/U, 2'-OMe G in stems S1, S2 and loop L2, 2'-F at other G, 5' C6NH2, 3' idT
B1: the Kd in data set [4] is 0.126 nM.
In data set [1], CGGUGGGAAAUGUGCGAUGGGUUGCCG (ssRNA, 2'-F G, 2'-OMe A/C/U, 5' C6NH2, 3' idT) [Aptamer 171] showed a binding signal of over 10 fold worse than Aptamer 8.
In the case of CGGUGGGAAAUGUAAGAUGGGUUGCCG (ssRNA, 2'-F G; 2'-OMe A,C,U; 5' C6NH2; 3' idT) [Aptamer 169], the binding signal in data set [2] was over 10 fold worse than Aptamer 8.
In the case of GAUGACGGUAGAUUUCGGGUAGUGUGACCGCAUC (ssRNA, 2'-F G, 2'-OMe A/C/U, 5' C6NH2, 3' idT) [Aptamer 142], the binding result in data set [5] is “binds”.
Same read-out and setting: next, GAUGACGGUAGAUUAUGGGAAGUGUGACCGCAUC (ssRNA, 2'-F G, 2'-OMe A/C/U, 5' C6NH2, 3' idT) [Aptamer 150]: “binds”.
As for CGGUGGGAAAUGUGAUAUGGGUUGCCG (ssRNA, 2'-F G; 2'-OMe A,C,U; 5' C6NH2; 3' idT) [Aptamer 176], the binding signal in data set [2] is over 10 fold worse than Aptamer 8.
CGGUGGGAAAUGUGUGAUGGGUUGCCG (ssRNA, 2'-F G; 2'-OMe A,C,U; 5' C6NH2; 3' idT) [Aptamer 173] returned a binding signal in data set [2] of over 10 fold worse than Aptamer 8.
CGGUGGGAAAUGUUAGAUGGGUUGCCG (ssRNA, 2'-F G; 2'-OMe A,C,U; 5' C6NH2; 3' idT) [Aptamer 170] had a binding signal in data set [2] of over 10 fold worse than Aptamer 8.
The same measure, in the same setting: next, CGGUGGGAAAUGUGAGUUGGGUUGCCG (ssRNA, 2'-F G; 2'-OMe A,C,U; 5' C6NH2; 3' idT) [Aptamer 179]: over 10 fold worse than Aptamer 8.
CGGUGGGAAAUGUGGGAUGGGUUGCCG (ssRNA, 2'-F G, 2'-OMe A/C/U, 5' C6NH2, 3' idT) [Aptamer 172] had a binding signal in data set [1] of over 10 fold worse than Aptamer 8.
Still for that read-out and setting: as for CGGUGGGAAAUGUCAGAUGGGUUGCCG (ssRNA, 2'-F G, 2'-OMe A/C/U, 5' C6NH2, 3' idT) [Aptamer 168], the figure is over 10 fold worse than Aptamer 8; as for CGGUGGGAAAUGUGAGGUGGGUUGCCG (ssRNA, 2'-F G, 2'-OMe A/C/U, 5' C6NH2, 3' idT) [Aptamer 178], over 10 fold worse than Aptamer 8.
Take GCGACGGUAGAUUAUGGGAAGUGUGACCGCGC (ssRNA, 2'-F G, 2'-OMe A/C/U, 5' C6NH2, 3' idT) [Aptamer 152]: the binding result in data set [5] is reported as “binds”.

The values are drawn from patent US20210230599, “STEM-LOOP COMPOSITIONS AND METHODS FOR INHIBITING INTERLEUKIN-8” (VITRISA THERAPEUTICS, INC., published 2021).
